From article PMC6152903 (Cell reports, 2018)

Columns and labels:
[1] = biological target: the molecule itself; experiment: co-IP
[2] = biological target: the molecule itself; experiment: SDS-PAGE without reducing reagent

B1: FLAG-ZMYND8 (Sf9) (natural protein)
chain: MHPQSLAEEEIKTEQEVVEGMDISTRSKDPGSAERTAQKRKFPSPPHSSNGHSPQDTSTSPIKKKKKPGLLNSNNKEQSELRHGPFYYMKQPLTTDPVDVVPQDGRNDFYCWVCHREGQVLCCELCPRVYHAKCLRLTSEPEGDWFCPECEKITVAECIETQSKAMTMLTIEQLSYLLKFAIQKMKQPGTDAFQKPVPLEQHPDYAEYIFHPMDLCTLEKNAKKKMYGCTEAFLADAKWILHNCIIYNGGNHKLTQIAKVVIKICEHEMNEIEVCPECYLAACQKRDNWFCEPCSNPHPLVWAKLKGFPFWPAKALRDKDGQVDARFFGQHDRAWVPINNCYLMSKEIPFSVKKTKSIFNSAMQEMEVYVENIRRKFGVFNYSPFRTPYTPNSQYQMLLDPTNPSAGTAKIDKQEKVKLNFDMTASPKILMSKPVLSGGTGRRISLSDMPRSPMSTNSSVHTGSDVEQDAEKKATSSHFSASEESMDFLDKSTASPASTKTGQAGSLSGSPKPFSPQLSAPITTKTDKTSTTGSILNLNLDRSKAEMDLKELSESVQQQSTPVPLISPKRQIRSRFQLNLDKTIESCKAQLGINEISEDVYTAVEHSDSEDSEKSDSSDSEYISDDEQKSKNEPEDTEDKEGCQMDKEPSAVKKKPKPTNPVEIKEELKSTSPASEKADPGAVKDKASPEPEKDFSEKAKPSPHPIKDKLKGKDETDSPTVHLGLDSDSESELVIDLGEDHSGREGRKNKKEPKEPSPKQDVVGKTPPSTTVGSHSPPETPVLTRSSAQTSAAGATATTSTSSTVTVTAPAPAATGSPVKKQRPLLPKETAPAVQRVVWNSSSKFQTSSQKWHMQKMQRQQQQQQQQNQQQQPQSSQGTRYQTRQAVKAVQQKEITQSPSTSTITLVTSTQSSPLVTSSGSMSTLVSSVNADLPIATASADVAADIAKYTSKMMDAIKGTMTEIYNDLSKNTTGSTIAEIRRLRIEIEKLQWLHQQELSEMKHNLELTMAEMRQSLEQERDRLIAEVKKQLELEKQQAVDETKKKQWCANCKKEAIFYCCWNTSYCDYPCQQAHWPEHMKSCTQSATAPQQEADAEVNTETLNKSSQGSSSSTQSAPSETASASKEKETSAEKSKESGSTLDLSGSRETPSSILLGSNQGSDHSRSNKSSWSSSDEKRGSTRSDHNTSTSTKSLLPKESRLDTFWD
stoichiometry N [1]: 2

B2: endogenous ZMYND8 (natural protein)
chain: MDISTRSKDPGSAERTAQKRKFPSPPHSSNGHSPQDTSTSPIKKKKKPGLLNSNNKEQSELRHGPFYYMKQPLTTDPVDVVPQDGRNDFYCWVCHREGQVLCCELCPRVYHAKCLRLTSEPEGDWFCPECEKITVAECIETQSKAMTMLTIEQLSYLLKFAIQKMKQPGTDAFQKPVPLEQHPDYAEYIFHPMDLCTLEKNAKKKMYGCTEAFLADAKWILHNCIIYNGGNHKLTQIAKVVIKICEHEMNEIEVCPECYLAACQKRDNWFCEPCSNPHPLVWAKLKGFPFWPAKALRDKDGQVDARFFGQHDRAWVPINNCYLMSKEIPFSVKKTKSIFNSAMQEMEVYVENIRRKFGVFNYSPFRTPYTPNSQYQMLLDPTNPSAGTAKIDKQEKVKLNFDMTASPKILMSKPVLSGGTGRRISLSDMPRSPMSTNSSVHTGSDVEQDAEKKATSSHFSASEESMDFLDKSTASPASTKTGQAGSLSGSPKPFSPQLSAPITTKTDKTSTTGSILNLNLDRSKAEMDLKELSESVQQQSTPVPLISPKRQIRSRFQLNLDKTIESCKAQLGINEISEDVYTAVEHSDSEDSEKSDSSDSEYISDDEQKSKNEPEDTEDKEGCQMDKEPSAVKKKPKPTNPVEIKEELKSTSPASEKADPGAVKDKASPEPEKDFSEKAKPSPHPIKDKLKGKDETDSPTVHLGLDSDSESELVIDLGEDHSGREGRKNKKEPKEPSPKQDVVGKTPPSTTVGSHSPPETPVLTRSSAQTSAAGATATTSTSSTVTVTAPAPAATGSPVKKQRPLLPKETAPAVQRVVWNSSSKFQTSSQKWHMQKMQRQQQQQQQQNQQQQPQSSQGTRYQTRQAVKAVQQKEITQSPSTSTITLVTSTQSSPLVTSSGSMSTLVSSVNADLPIATASADVAADIAKYTSKMMDAIKGTMTEIYNDLSKNTTGSTIAEIRRLRIEIEKLQWLHQQELSEMKHNLELTMAEMRQSLEQERDRLIAEVKKQLELEKQQAVDETKKKQWCANCKKEAIFYCCWNTSYCDYPCQQAHWPEHMKSCTQSATAPQQEADAEVNTETLNKSSQGSSSSTQSAPSETASASKEKETSAEKSKESGSTLDLSGSRETPSSILLGSNQGSDHSRSNKSSWSSSDEKRGSTRSDHNTSTSTKSLLPKESRLDTFWD
stoichiometry N [2]: 2
